Data published in publication PMC7912905.

Columns and labels:
[1] = molecular target: phosphorylated form of RNAP II in both wt MEFs and HeLa cells; test: FRET or BRET; FLIM-FRET on wt MEFs or HeLa cells transiently transfected with EGFP-SRSF2 (donor), fixed and immunostained for lamin A or RNA polymerase II pS5 (acceptor, secondary antibody Alexa Fluor 594); E ≥ 25% taken as interaction
[2] = molecular target: β-catenin (mouse (endogenous in MEFs)) (UniProt Q02248); test: FRET or BRET; FLIM-FRET on fixed, immunostained mitotic cells with normal A-type lamins (lmna wt MEFs); SC-35 donor (Cy3), β-catenin acceptor (Cy5); E ≥ 25% taken as interaction
Sequence of β-catenin (mouse (endogenous in MEFs)) (Q02248 whole entry): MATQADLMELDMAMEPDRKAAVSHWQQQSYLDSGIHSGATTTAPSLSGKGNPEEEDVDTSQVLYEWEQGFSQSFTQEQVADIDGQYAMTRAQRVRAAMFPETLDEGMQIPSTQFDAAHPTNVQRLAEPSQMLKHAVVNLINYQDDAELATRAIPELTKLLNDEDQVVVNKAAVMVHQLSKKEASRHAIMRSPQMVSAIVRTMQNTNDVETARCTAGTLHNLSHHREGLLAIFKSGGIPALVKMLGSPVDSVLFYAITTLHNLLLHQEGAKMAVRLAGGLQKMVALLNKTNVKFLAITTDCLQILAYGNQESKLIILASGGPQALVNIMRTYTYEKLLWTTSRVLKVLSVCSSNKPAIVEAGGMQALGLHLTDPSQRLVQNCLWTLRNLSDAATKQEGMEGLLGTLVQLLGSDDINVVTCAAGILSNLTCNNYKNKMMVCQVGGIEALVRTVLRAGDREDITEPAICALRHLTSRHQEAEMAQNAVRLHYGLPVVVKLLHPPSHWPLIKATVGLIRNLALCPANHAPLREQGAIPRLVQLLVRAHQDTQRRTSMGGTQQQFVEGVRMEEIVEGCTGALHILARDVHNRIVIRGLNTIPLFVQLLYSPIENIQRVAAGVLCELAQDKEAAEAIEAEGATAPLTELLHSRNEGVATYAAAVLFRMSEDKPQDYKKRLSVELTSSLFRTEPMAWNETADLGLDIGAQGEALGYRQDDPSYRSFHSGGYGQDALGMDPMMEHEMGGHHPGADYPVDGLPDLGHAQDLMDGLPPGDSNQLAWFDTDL

[3] = molecular target: phosphorylated form of RNA polymerase II (CTD repeat YSPTSPS, phospho S5), in mouse embryonic fibroblasts (mouse (endogenous in MEFs)) (UniProt P08775); test: FRET or BRET; FLIM-FRET on fixed, immunostained interphase lmna wt cells (MEFs); SC-35 donor (secondary antibody Cy3), RNA polymerase II pS5 acceptor (secondary antibody Cy5); E ≥ 25% taken as interaction

Sequence of EGFP-tagged SRSF2 (Q01130 whole entry): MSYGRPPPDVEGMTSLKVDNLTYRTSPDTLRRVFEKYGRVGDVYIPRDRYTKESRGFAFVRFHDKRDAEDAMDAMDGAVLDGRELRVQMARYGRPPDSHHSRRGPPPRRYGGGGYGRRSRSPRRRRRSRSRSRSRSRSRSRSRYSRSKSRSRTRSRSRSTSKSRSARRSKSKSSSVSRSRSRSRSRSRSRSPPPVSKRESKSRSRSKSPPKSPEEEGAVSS

Row | Substance | FRET efficiency [1] [%] | FRET efficiency [2] [%] | FRET efficiency [3] [%]
1 | EGFP-tagged SRSF2 (from UniProt Q01130 1-221) (natural protein) | 27 to 29 | – | –
2 | SC-35 protein (serine/arginine-rich splicing factor 2, encoded by the SRSF2 gene) (from UniProt Q62093 1-221) (natural protein) | – | 36.5 | 75
